Measured values as given in patent US11731099B2, “Method for controlling encapsulation efficiency and burst release of water soluble molecules from nanoparticles and microparticles produced by inverse flash nanoprecipitation” (The Trustees of Princeton University, priority 2018, dated 2023).

Assay: Burst release of lysozyme from coated nanoparticles in release media
Type: physicochemical
Settings: PBS with 0.2 wt % Tween-20 versus PBS, 37° C.

Substance: lysozyme
- increase of burst release in presence of surfactant: 25%
